Patent publication US20160235855A1, “STABLE AQUEOUS PARENTERAL PHARMACEUTICAL COMPOSITIONS OF INSULINOTROPIC PEPTIDES” (SHANGHAI BENEMAE PHARMACEUTICAL CORPORATION, priority 2013, published 2016)
Like-named read-outs stand apart in the source and are kept apart here.

Key:
[1] = HPLC analysis of GLP-1 on C18 column (chemical stability); assay type: physicochemical
Protocol: An investigation method for chemical stability: a test sample was taken, and analyzed on a C18 column (3.5 μm, 300 Å, φ 4.6×50 mm). An analytical method: mobile phase A was 0.1% trifluoroacetic acid, B was the A phase with 80% acetonitrile added therein, the detection wavelength was 280 nm, 60% A and 40% B were balanced for 3 min, and the sample amount was 2 to 5 μL. Elution was performed with linear gradient for 8 min with 40% to 53% of the B phase and 60% to 47% of the A phase. Peak area was calculated using the normalization method. A standard sample was determined with the same method. The peptide concentration in the sample was calculated by comparison with the standard sample, and compared with the determination result at day 0, to calculate the retention of the peptide content in the sample. A higher retention of the peptide content indicated better chemical stability.
The HPLC detection method was performed according to Example 1.
The formulation method and HPLC detection method of the pharmaceutical compositions were performed according to Example 5.

[2] = Thioflavine T fluorescence value (gelatination, physical stability); assay type: physicochemical; conditions: 35 days
Protocol: A monitoring method for physical stability of the pH value was the fluorescence value, that is, thioflavine T was added into the sample at a final concentration of 5 μmol/L, then the fluorescence absorption value was determined (at an excitation wavelength of 435 nm, and an emission wavelength of 485 nm). The higher the absorption value is, the severer the gelatination phenomena of the sample is, and the poorer the physical stability is.

[3] = Long-term stability of GLP-1 formulations by HPLC; assay type: physicochemical
Protocol: The GLP-1 purity was determined by comparing the GLP-1 peak area with the total peak area.

[4] = WO00/37098, cited from earlier work

Glucagon-like peptide 1 [GLP-1]
Results of HPLC analysis, retention of the peptide content ([1]; pH 3.0, NaCl 0 mg/mL, 35° C., 8 days): 95.46% | Results of HPLC analysis, retention of the peptide content ([1]; pH 3.0, NaCl 0 mg/mL, 45° C., 8 days): 87.19% | Results of HPLC analysis, retention of the peptide content ([1]; pH 3.0, NaCl 1.17 mg/mL, 35° C., 8 days): 93.69% | Results of HPLC analysis, retention of the peptide content ([1]; pH 3.0, NaCl 1.17 mg/mL, 45° C., 8 days): 87.93% | Results of HPLC analysis, retention of the peptide content ([1]; pH 3.0, NaCl 8.77 mg/mL, 35° C., 8 days): 95.03% | Results of HPLC analysis, retention of the peptide content ([1]; pH 3.0, NaCl 8.77 mg/mL, 45° C., 8 days): 87.86% | Results of HPLC analysis, retention of the peptide content ([1]; pH 3.0, NaCl 29.22 mg/mL, 35° C., 8 days): 96.42% | Results of HPLC analysis, retention of the peptide content ([1]; pH 3.0, NaCl 29.22 mg/mL, 45° C., 8 days): 91.16% | Results of HPLC analysis, retention of the peptide content ([1]; pH 3.5, NaCl 0 mg/mL, 35° C., 8 days): 94.73% | Results of HPLC analysis, retention of the peptide content ([1]; pH 3.5, NaCl 0 mg/mL, 45° C., 8 days): 88.66% | Results of HPLC analysis, retention of the peptide content ([1]; pH 3.5, NaCl 1.17 mg/mL, 35° C., 8 days): 96.92% | Results of HPLC analysis, retention of the peptide content ([1]; pH 3.5, NaCl 1.17 mg/mL, 45° C., 8 days): 92.54% | Results of HPLC analysis, retention of the peptide content ([1]; pH 3.5, NaCl 8.77 mg/mL, 35° C., 8 days): 98.06% | Results of HPLC analysis, retention of the peptide content ([1]; pH 3.5, NaCl 8.77 mg/mL, 45° C., 8 days): 92.90% | Results of HPLC analysis, retention of the peptide content ([1]; pH 3.6, NaCl below 20 mmol/L, 25° C., 30 days): 93.04% | Results of HPLC analysis, retention of the peptide content ([1]; pH 3.6, NaCl below 20 mmol/L, 35° C., 30 days): 86.25% | Results of HPLC analysis, retention of the peptide content ([1]; pH 3.7, NaCl below 20 mmol/L, 25° C., 30 days): 95.15% | Results of HPLC analysis, retention of the peptide content ([1]; pH 3.7, NaCl below 20 mmol/L, 35° C., 30 days): 86.11% | Results of HPLC analysis, retention of the peptide content ([1]; pH 3.8, NaCl below 20 mmol/L, 25° C., 30 days): 97.10% | Results of HPLC analysis, retention of the peptide content ([1]; pH 3.8, NaCl below 20 mmol/L, 35° C., 30 days): 89.48% | Results of HPLC analysis, retention of the peptide content ([1]; pH 3.9, NaCl below 20 mmol/L, 25° C., 30 days): 98.08% | Results of HPLC analysis, retention of the peptide content ([1]; pH 3.9, NaCl below 20 mmol/L, 35° C., 30 days): 90.36% | Results of HPLC analysis, retention of the peptide content ([1]; pH 4.0, NaCl 0 mg/mL, 35° C., 8 days): 96.07% | Results of HPLC analysis, retention of the peptide content ([1]; pH 4.0, NaCl 0 mg/mL, 45° C., 8 days): 92.77% | Results of HPLC analysis, retention of the peptide content ([1]; pH 4.0, NaCl 1.17 mg/mL, 35° C., 8 days): 97.43% | Results of HPLC analysis, retention of the peptide content ([1]; pH 4.0, NaCl 1.17 mg/mL, 45° C., 8 days): 93.76% | Results of HPLC analysis, retention of the peptide content ([1]; pH 4.0, NaCl 8.77 mg/mL, 35° C., 8 days): 98.73% | Results of HPLC analysis, retention of the peptide content ([1]; pH 4.0, NaCl 8.77 mg/mL, 45° C., 8 days): Turbid | Results of HPLC analysis, retention of the peptide content ([1]; pH 4.0, NaCl below 20 mmol/L, 25° C., 30 days): 97.85% | Results of HPLC analysis, retention of the peptide content ([1]; pH 4.0, NaCl below 20 mmol/L, 35° C., 30 days): 91.80% | Results of HPLC analysis, retention of the peptide content ([1]; pH 4.1, NaCl below 20 mmol/L, 25° C., 30 days): 98.90% | Results of HPLC analysis, retention of the peptide content ([1]; pH 4.1, NaCl below 20 mmol/L, 35° C., 30 days): 91.35% | Results of HPLC analysis, retention of the peptide content ([1]; pH 4.2, NaCl below 20 mmol/L, 25° C., 30 days): 98.24% | Results of HPLC analysis, retention of the peptide content ([1]; pH 4.2, NaCl below 20 mmol/L, 35° C., 30 days): 93.96% | Results of HPLC analysis, retention of the peptide content ([1]; pH 4.5, NaCl 0 mg/mL, 35° C., 8 days): 97.23% | Results of HPLC analysis, retention of the peptide content ([1]; pH 4.5, NaCl 0 mg/mL, 45° C., 8 days): 92.45% | Results of HPLC analysis, retention of the peptide content ([1]; pH 4.5, NaCl 1.17 mg/mL, 35° C., 8 days): 95.29% | Results of HPLC analysis, retention of the peptide content ([1]; pH 4.5, NaCl 1.17 mg/mL, 45° C., 8 days): Turbid | Results of HPLC analysis, retention of the peptide content ([1]; pH 4.5, NaCl 8.77 mg/mL, 35° C., 8 days): Turbid | Results of HPLC analysis, retention of the peptide content ([1]; pH 4.5, NaCl 8.77 mg/mL, 45° C., 8 days): Turbid | Results of HPLC analysis, retention of the peptide content ([1]; pH 7.0, NaCl 0 mg/mL, 35° C., 8 days): 94.30% | Results of HPLC analysis, retention of the peptide content ([1]; pH 7.0, NaCl 0 mg/mL, 45° C., 8 days): 88.83% | Results of HPLC analysis, retention of the peptide content ([1]; pH 7.0, NaCl 1.17 mg/mL, 35° C., 8 days): 93.35% | Results of HPLC analysis, retention of the peptide content ([1]; pH 7.0, NaCl 1.17 mg/mL, 45° C., 8 days): 90.43% | Results of HPLC analysis, retention of the peptide content ([1]; pH 7.0, NaCl 8.77 mg/mL, 35° C., 8 days): 94.34% | Results of HPLC analysis, retention of the peptide content ([1]; pH 7.0, NaCl 8.77 mg/mL, 45° C., 8 days): 92.79% | Results of HPLC analysis, retention of the peptide content ([1]; pH 7.0, NaCl 29.22 mg/mL, 35° C., 8 days): 95.83% | Results of HPLC analysis, retention of the peptide content ([1]; pH 7.0, NaCl 29.22 mg/mL, 45° C., 8 days): 95.37% | chemical stability ([1]; pH 7.0 to 7.5): poor | Results of HPLC analysis, retention of the peptide content ([1]; pH 7.5, NaCl 0 mg/mL, 35° C., 8 days): 90.89% | Results of HPLC analysis, retention of the peptide content ([1]; pH 7.5, NaCl 1.17 mg/mL, 35° C., 8 days): 91.88% | Results of HPLC analysis, retention of the peptide content ([1]; pH 7.5, NaCl 1.17 mg/mL, 45° C., 8 days): 85.88% | Results of HPLC analysis, retention of the peptide content ([1]; pH 7.5, NaCl 8.77 mg/mL, 35° C., 8 days): 92.15% | Results of HPLC analysis, retention of the peptide content ([1]; pH 7.5, NaCl 8.77 mg/mL, 45° C., 8 days): 87.48% | Results of HPLC analysis, retention of the peptide content ([1]; pH 7.5, NaCl 29.22 mg/mL, 35° C., 8 days): 93.74% | Results of HPLC analysis, retention of the peptide content ([1]; pH 7.5, NaCl 29.22 mg/mL, 45° C., 8 days): 88.04% | chemical instability ([1]; pH value lower than about 3.5): acid hydrolysis | Fluorescence value ([2]; pH 3.6, NaCl below 20 mmol/L, 35° C.): 9.95 | Fluorescence value ([2]; pH 3.7, NaCl below 20 mmol/L, 25° C.): 9.11 | Fluorescence value ([2]; pH 3.7, NaCl below 20 mmol/L, 35° C.): 14.55 | Fluorescence value ([2]; pH 3.8, NaCl below 20 mmol/L, 25° C.): 11.01 | Fluorescence value ([2]; pH 3.8, NaCl below 20 mmol/L, 35° C.): 31.58 | Fluorescence value ([2]; pH 3.9, NaCl below 20 mmol/L, 25° C.): 26.46 | Fluorescence value ([2]; pH 3.9, NaCl below 20 mmol/L, 35° C.): 78.27 | Fluorescence value ([2]; pH 4.0, NaCl below 20 mmol/L, 25° C.): 59.32 | Fluorescence value ([2]; pH 4.0, NaCl below 20 mmol/L, 35° C.): 113.18 | Fluorescence value ([2]; pH 4.1, NaCl below 20 mmol/L, 25° C.): 139.48 | Fluorescence value ([2]; pH 4.1, NaCl below 20 mmol/L, 35° C.): 157.00 | storage duration ([3]; 2 to 8° C., composition pH about 3.5 to 5.0): ≥ 2 years | storage duration ([3]; 4° C., GLP-1 concentration up to 2 mg/ml, preservative added): 2 years | physical stability ([4]; between pH 6.8 and 7.5): poor | chemical stability ([4]; pH value greater than 8.8): reduced | appearance of the formulation ([4]; pH value less than 8.0 after the addition of a preservative): turbid
